Residue numbers refer to the chain shown, from its start. Names may count otherwise. Read-outs that look alike come from different tables or passages of the source. Bridge positions count the residues as written; N and C are the ends. Square brackets hold non-standard residues; d marks the D form. Ends that are not written are not given here. C20L5A staple = not defined here; L5A(S) staple = not defined here; C20L5A = not defined here; L5A = not defined here; Aib = CC(C)(N)C(=O)O
Columns and labels:
Assay in all cases: cell-based or functional assay
[1] = biological target: T1, human GIPR (human, UniProt P48546 22-466)
T1 sequence (looked up): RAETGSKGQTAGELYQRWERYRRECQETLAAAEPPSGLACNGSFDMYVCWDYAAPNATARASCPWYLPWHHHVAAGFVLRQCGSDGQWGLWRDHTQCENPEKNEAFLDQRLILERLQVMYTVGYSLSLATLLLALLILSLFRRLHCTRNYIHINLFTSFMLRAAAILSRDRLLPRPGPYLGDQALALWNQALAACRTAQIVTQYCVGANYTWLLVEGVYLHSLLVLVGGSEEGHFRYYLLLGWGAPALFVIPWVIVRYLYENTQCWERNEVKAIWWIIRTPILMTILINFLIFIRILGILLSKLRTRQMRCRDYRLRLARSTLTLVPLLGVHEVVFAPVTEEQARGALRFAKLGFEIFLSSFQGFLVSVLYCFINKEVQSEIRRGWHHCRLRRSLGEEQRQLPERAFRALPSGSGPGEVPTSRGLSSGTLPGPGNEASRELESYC

[2] = biological target: cynomolgous monkey GIPR (cynomolgous monkey)
[3] = biological target: cynomolgous monkey GLP1R (cynomolgous monkey)
[4] = biological target: T1, human GIPR; remark: listed apart in the source
[5] = biological target: T2, human GLP-1R (human, UniProt P43220 24-463)
[6] = biological target: T1, human GIPR; remark: listed apart in the source
[7] = biological target: T2, human GLP-1R; remark: listed apart in the source
[8] = biological target: T2, human GLP-1R; remark: listed apart in the source
[9] = biological target: T2, human GLP-1R; remark: listed apart in the source
[10] = biological target: T1, human GIPR; remark: listed apart in the source
[11] = biological target: T1, human GIPR; remark: listed apart in the source
[12] = biological target: T3, mouse GLP1R (mouse, UniProt O35659 22-463, limits assumed)
T3 sequence (looked up): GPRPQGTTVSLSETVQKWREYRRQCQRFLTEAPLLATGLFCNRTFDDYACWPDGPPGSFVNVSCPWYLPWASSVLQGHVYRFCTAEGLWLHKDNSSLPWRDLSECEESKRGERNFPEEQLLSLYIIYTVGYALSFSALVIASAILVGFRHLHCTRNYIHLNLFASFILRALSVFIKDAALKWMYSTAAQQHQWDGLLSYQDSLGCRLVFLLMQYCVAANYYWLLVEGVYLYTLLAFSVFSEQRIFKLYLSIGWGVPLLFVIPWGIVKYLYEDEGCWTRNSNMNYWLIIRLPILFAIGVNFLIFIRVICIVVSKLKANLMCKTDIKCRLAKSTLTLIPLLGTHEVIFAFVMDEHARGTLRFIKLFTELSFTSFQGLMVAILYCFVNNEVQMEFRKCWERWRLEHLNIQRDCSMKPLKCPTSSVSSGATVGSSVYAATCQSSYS

B1: mCMV268 (27I, C(17-24)-C20L5A) (peptide)
peptide: YXEGTFTSDYSIYLDKCAAXEFVCWLIAGGPSSGAPPPS
modifications: Aib at positions 2 and 20; C-terminal amide (NH2); staple C20L5A attached at Cys17 and Cys24
With B1 the “EC50 of receptor-mediated cAMP synthesis (02/19)” value (shortened to “EC50 … (02/19)”) [1] was 0.05 nM, the “In Vitro Potency GIPR EC50 [nM], Cyno” value [2] was 0.16 nM and the “In Vitro Potency GLP1R EC50 [nM], Cyno” value [3] was 0.22 nM. For the same binder, the “In Vitro Potency GIPR EC50 [nM], 10% FBS” value [4] was 0.09 nM and the “In Vitro Potency GIPR EC50 [nM], No Serum” value [4] was 0.01 nM.

B2: mCLZ715 (peptide)
peptide: YXEGTFTSDYSIYKDKQAAXKFVNWLLAGGPSSGAPPPS
modifications: Aib at positions 2 and 20; C-terminal amide (NH2); staple K5 attached at Lys14 and Lys21
B2 was tested, and the “EC50 of receptor-mediated cAMP synthesis” value [5] was 0.02 nM and the “EC50 of receptor-mediated cAMP synthesis” value [6] was 0.02 nM.

B3: mCMV266 (27I, C(14-21)-C20L5A) (peptide)
peptide: B2 peptide with K14C, K21C, L27I
modifications: Aib at positions 2 and 20; C-terminal amide (NH2); staple C20L5A attached at Cys14 and Cys21
B3 was tested, and the “EC50 … (02/19)” value [7] was 0.03 nM, the “EC50 of receptor-mediated cAMP synthesis (3/25)” value (“EC50 … (3/25)” for short) [7] was 0.05 nM and the “EC50 of receptor-mediated cAMP synthesis (average)” value (from here on “EC50 … (average)”) [7] was 0.05 nM. The “EC50 of receptor-mediated cAMP synthesis” value [8] was 0.05 nM.

B4: mCMD307 (2050-K4) (peptide)
peptide: B2 peptide
modifications: Aib at positions 2 and 20; C-terminal amide (NH2); staple K4 attached at Lys14 and Lys21
With B4 the “EC50 … (02/19)” value [7] was 0.01 nM, the “EC50 … (3/25)” value [7] was 0.01 nM and the “EC50 of receptor-mediated cAMP synthesis (03/26)” value (“EC50 … (03/26)” below) [7] was 0.01 nM. The “EC50 … (average)” value [7] was 0.01 nM, the “EC50 of receptor-mediated cAMP synthesis (03/25)” value [1] was 0.01 nM and the “EC50 … (03/26)” value [1] was 0.01 nM. The “EC50 … (average)” value [1] was 0.02 nM, the “EC50 of receptor-mediated cAMP synthesis” value [9] was 0.03 nM and the “EC50 of receptor-mediated cAMP synthesis” value [10] was 0.01 nM. For the same binder, the “EC50 of receptor-mediated cAMP synthesis” value [5] was 0.01 nM, the “EC50 of receptor-mediated cAMP synthesis” value [6] was 0.02 nM and the “EC50 of receptor-mediated cAMP synthesis” value [8] was 0.03 nM. For the same binder, the “EC50 of receptor-mediated cAMP synthesis” value [11] was 0.01 nM.

B5: mCMC759 (C(14-21)-L5A) (peptide)
peptide: B2 peptide with K14C, K21C
modifications: Aib at positions 2 and 20; C-terminal amide (NH2); staple L5A attached at Cys14 and Cys21
With B5 the “EC50 of receptor-mediated cAMP synthesis” value [10] was 0.03 nM and the “EC50 of receptor-mediated cAMP synthesis” value [11] was 0.03 nM.

B6: C(17-24)-C20L5A (peptide)
peptide: Y[Aib]EGTFTSDYSIYLDKCAA[Aib]EFVCWLLAGGPSSGAPPPS-NH2
modifications: linker 17-24 via C20L5A; reading uncertain
In the case of B6, the “EC50 … (3/25)” value [7] is reported as 0.1 nM, the “EC50 … (03/26)” value [7] is reported as 0.09 nM and the “EC50 … (average)” value [7] is reported as 0.09 nM. The “EC50 of receptor-mediated cAMP synthesis (03/25)” value [1] was 0.02 nM, the “EC50 … (03/26)” value [1] was 0.03 nM and the “EC50 … (average)” value [1] was 0.03 nM. For the same binder, the “EC50 of receptor-mediated cAMP synthesis” value [10] was 0.05 nM.

B7: 27I, C(14-21)-L5A (peptide)
peptide: Y[Aib]EGTFTSDYSIYCDKQAA[Aib]CFVNWLIAGGPSSGAPPPS-NH2
modifications: linker 14-21 via L5A; reading uncertain
In the case of B7, the “EC50 of receptor-mediated cAMP synthesis” value [11] is reported as 0.03 nM.

B8: mCMZ371 (C(17-24)-L5A(S)) (peptide)
peptide: Y[Aib]EGTFTSDYSIYLDKCAA[Aib]EFVCWLIAGGPSSGAPPPS-NH2
modifications: linker 17-24 via L5A(S) staple; reading uncertain
With B8 the “In Vitro Potency GLP1R EC50 [nM], Cyno” value [3] was 0.11 nM, the “In Vitro Potency GLP1R EC50 [nM], Mouse” value [12] was 0.09 nM and the “In Vitro Potency GIPR EC50 [nM], No Serum” value [4] was 0.01 nM.

B9: C(14-21)-C20L5A (peptide)
peptide: Y[Aib]EGTFTSDYSIYCDKQAA[Aib]CFVNWLLAGGPSSGAPPPS-NH2
modifications: linker 14-21 via C20L5A staple; reading uncertain
With B9 the “EC50 … (average)” value [1] was 0.05 nM and the “EC50 of receptor-mediated cAMP synthesis” value [11] was 0.05 nM.

B10: 6Y, 27I, C(17-24)-C20L5A (peptide)
peptide: Y[Aib]EGTYTSDYSIYLDKCAA[Aib]EFVCWLIAGGPSSGAPPPS-NH2
modifications: linker 17-24 via C20L5A; reading uncertain
For B10, the “EC50 … (02/19)” value [7] was 0.05 nM.

B11: C(17-24)-L5A (peptide)
peptide: Y[Aib]EGTFTSDYSIYLDKCAA[Aib]EFVCWLLAGGPSSGAPPPS-NH2
modifications: linker 17-24 via L5A; reading uncertain
In the case of B11, the “EC50 of receptor-mediated cAMP synthesis” value [10] is reported as 0.05 nM.

B12: 19Q, 21A, 27I, 29Q, C(17-24) - C20L5A (peptide)
peptide: Y[Aib]EGTFTSDYSIYLDKCAQ[Aib]AFVCWLIAQGPSSGAPPPS-NH2
modifications: linker 17-24 via C20L5A; reading uncertain
B12 was tested, and the “EC50 of receptor-mediated cAMP synthesis” value [10] was 0.02 nM.

— patent publication US20240148884A1 (Scripps Research, published 2024)
